Source: patent publication US20220153792A1 (INSTITUTE FOR RESEARCH IN BIOMEDICINE, published 2022)

T1: histidine tagged HMGB1 (High-Mobility-Group-Protein 1) (Homo sapiens (Human), UniProt P09429 1-215, limits assumed, labeled with the his-tag specific NT-647 dye)
T1 construct: also called high-mobility protein box 1; not shown: histidine tag
T1 sequence: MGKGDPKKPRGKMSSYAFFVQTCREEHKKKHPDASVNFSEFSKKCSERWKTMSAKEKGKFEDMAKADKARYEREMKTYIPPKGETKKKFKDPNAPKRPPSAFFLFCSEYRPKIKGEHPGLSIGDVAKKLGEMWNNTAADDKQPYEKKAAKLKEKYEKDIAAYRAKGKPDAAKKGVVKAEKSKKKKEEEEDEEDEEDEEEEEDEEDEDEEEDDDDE


Target: T1, histidine tagged HMGB1 …
Assay: MST, NT-647-labelled His-tagged HMGB1, peptide titrated

Row | Kd | Binder | binding result
1 | 200 µM | ERWIH (Last five residues of HBP08 (ERWIH)) [Pentapept-2] | 
2 |  | GYHYE (First five residues of HBP08 (GYHYE)) [Pentapept-1] | no binding (tested: highest peptide concentration 500 µM)
